Experimental data published in publication PMC4434323.

Tests used:
[1] = test system: T1, C34D1.1 (C34D1.1) (Caenorhabditis elegans)
T1 sequence: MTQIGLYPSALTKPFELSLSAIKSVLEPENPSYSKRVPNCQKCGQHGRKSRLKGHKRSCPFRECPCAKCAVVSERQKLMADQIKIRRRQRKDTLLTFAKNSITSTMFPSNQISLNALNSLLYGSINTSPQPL

[2] = test system: T2, dmd-3 (Y43F8C.10) (Caenorhabditis elegans)
T2 sequence: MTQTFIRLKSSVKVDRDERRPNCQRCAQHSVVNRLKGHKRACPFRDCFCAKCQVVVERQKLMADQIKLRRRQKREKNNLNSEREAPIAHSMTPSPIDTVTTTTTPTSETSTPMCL

[3] = biological target: T3, K02D7.2 (K02D7.2) (Caenorhabditis elegans) (UniProt O45103)
T3 sequence: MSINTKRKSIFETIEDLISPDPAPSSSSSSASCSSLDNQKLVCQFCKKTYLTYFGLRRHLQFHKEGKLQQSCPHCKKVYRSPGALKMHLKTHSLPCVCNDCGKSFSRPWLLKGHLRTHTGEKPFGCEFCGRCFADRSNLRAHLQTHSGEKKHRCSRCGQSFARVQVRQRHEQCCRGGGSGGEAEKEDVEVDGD

[4] = biological target: T4, ces-1 (F43G9.11) (Caenorhabditis elegans) (UniProt G5ECN8)
T4 sequence: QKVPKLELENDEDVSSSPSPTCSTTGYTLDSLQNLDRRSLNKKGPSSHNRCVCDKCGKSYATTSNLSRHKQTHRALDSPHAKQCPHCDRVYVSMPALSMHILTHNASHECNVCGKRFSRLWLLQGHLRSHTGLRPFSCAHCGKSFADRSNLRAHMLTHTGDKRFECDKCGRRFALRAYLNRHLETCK

[5] = biological target: T5, jun-1 (T24H10.7) (Caenorhabditis elegans) (UniProt G5ECU7)
T5 sequence: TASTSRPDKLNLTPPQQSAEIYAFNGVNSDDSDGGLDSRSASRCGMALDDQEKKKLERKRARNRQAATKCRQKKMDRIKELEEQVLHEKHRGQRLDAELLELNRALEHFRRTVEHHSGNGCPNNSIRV

[6] = biological target: T6, nhr-122 (Y41D4B.9) (Caenorhabditis elegans) (UniProt Q95Y09)
T6 sequence: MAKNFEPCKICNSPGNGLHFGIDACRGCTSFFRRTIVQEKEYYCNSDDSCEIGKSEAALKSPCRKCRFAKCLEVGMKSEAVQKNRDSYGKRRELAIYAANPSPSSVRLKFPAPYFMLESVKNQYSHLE

[7] = biological target: T7, hlh-16 (DY3.3) (Caenorhabditis elegans) (UniProt O45320)
T7 sequence: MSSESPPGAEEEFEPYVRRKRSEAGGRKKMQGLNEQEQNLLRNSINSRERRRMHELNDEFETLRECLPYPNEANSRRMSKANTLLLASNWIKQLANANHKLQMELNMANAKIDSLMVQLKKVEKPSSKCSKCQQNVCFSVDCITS

[8] = biological target: T8, lin-31 (K10G6.1) (Caenorhabditis elegans) (UniProt P34683)
T8 sequence: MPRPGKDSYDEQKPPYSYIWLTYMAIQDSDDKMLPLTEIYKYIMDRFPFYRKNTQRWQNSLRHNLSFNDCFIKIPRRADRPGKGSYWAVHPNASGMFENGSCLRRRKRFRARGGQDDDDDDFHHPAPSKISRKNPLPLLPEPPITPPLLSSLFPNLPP

[9] = biological target: T9, nhr-154 (C13C4.2) (Caenorhabditis elegans) (UniProt O01931)
T9 sequence: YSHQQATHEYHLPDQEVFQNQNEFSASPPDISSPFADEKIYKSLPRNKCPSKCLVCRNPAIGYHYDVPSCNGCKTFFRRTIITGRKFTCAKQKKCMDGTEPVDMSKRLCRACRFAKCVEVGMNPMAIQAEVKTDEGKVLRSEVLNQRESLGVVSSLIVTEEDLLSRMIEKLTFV

[10] = biological target: T10, Y67D8A.3 (Y67D8A.3) (Caenorhabditis elegans) (UniProt Q95XU1)
T10 sequence: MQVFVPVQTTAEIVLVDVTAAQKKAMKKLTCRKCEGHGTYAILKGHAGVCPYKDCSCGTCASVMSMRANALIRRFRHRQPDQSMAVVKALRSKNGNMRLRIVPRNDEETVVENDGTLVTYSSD

[11] = biological target: T11, T27F2.4 (T27F2.4) (Caenorhabditis elegans) (UniProt Q22835)
T11 sequence: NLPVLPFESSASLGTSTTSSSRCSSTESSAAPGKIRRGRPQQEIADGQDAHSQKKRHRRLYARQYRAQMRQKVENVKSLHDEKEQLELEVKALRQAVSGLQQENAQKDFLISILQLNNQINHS

[12] = biological target: T12, mab-3 (Y53C12B.5) (Caenorhabditis elegans) (UniProt O18214)
T12 sequence: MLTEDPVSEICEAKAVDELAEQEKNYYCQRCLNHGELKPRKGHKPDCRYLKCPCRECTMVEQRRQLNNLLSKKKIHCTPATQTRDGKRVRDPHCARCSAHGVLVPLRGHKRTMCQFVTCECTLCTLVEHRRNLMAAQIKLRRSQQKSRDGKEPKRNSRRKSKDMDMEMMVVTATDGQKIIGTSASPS

[13] = biological target: T13, hlh-12 (C28C12.8) (Caenorhabditis elegans) (UniProt Q18277)
T13 sequence: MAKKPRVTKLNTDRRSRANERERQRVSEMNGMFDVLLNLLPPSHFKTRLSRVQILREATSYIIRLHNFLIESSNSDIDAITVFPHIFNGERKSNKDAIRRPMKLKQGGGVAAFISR

[14] = biological target: T14, nhr-3 (H01A20.1) (Caenorhabditis elegans) (UniProt Q9XTJ4)
T14 sequence: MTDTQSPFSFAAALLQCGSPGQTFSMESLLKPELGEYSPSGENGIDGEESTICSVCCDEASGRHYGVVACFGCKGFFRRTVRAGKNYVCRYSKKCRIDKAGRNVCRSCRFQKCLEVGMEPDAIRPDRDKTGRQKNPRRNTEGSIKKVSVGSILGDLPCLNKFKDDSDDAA

[15] = biological target: T15, daf-12 (F11A1.3) (Caenorhabditis elegans) (UniProt G5EFF5)
T15 sequence: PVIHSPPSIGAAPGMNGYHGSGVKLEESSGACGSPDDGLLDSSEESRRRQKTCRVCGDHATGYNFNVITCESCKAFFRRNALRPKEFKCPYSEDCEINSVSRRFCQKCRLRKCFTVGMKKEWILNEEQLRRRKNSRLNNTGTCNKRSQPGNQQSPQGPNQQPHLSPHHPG

[16] = biological target: T16, let-381 (F26B1.7) (Caenorhabditis elegans) (UniProt P91278)
T16 sequence: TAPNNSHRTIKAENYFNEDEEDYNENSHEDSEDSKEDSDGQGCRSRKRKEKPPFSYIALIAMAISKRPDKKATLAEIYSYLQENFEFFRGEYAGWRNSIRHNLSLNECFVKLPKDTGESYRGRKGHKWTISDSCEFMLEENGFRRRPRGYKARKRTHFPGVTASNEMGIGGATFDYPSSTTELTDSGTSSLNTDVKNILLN

[17] = biological target: T17, fkh-9 (K03C7.2) (Caenorhabditis elegans) (UniProt Q21187)
T17 sequence: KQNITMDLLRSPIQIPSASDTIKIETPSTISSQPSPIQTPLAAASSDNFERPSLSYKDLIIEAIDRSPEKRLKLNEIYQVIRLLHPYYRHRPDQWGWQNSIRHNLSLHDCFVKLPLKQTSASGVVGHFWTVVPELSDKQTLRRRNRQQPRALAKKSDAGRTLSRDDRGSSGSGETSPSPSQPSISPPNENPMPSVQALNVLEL

[18] = biological target: T18, unc-120 (D1081.2) (Caenorhabditis elegans) (UniProt Q18955)
T18 sequence: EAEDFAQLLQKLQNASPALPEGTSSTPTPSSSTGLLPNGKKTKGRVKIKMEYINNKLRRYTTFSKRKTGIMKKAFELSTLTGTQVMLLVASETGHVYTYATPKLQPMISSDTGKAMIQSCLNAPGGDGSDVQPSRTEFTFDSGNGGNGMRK

ATGTTTCA (double strand) [8-mer ATGTTTCA]
binding signal (PBM E-score (-0.5 to 0.5)) [1]: 0.498 | binding signal (PBM E-score (-0.5 to 0.5)) [2]: 0.479

AACAGGTG (double strand) [8-mer AACAGGTG]
binding signal (PBM E-score (-0.5 to 0.5)) [3]: 0.488 | binding signal (PBM E-score (-0.5 to 0.5)) [4]: 0.468

GTGACTCA (double strand) [8-mer GTGACTCA]
binding signal (PBM E-score (-0.5 to 0.5)) [5]: 0.47

ACTCCAAT (double strand) [8-mer ACTCCAAT]
binding signal (PBM E-score (-0.5 to 0.5)) [6]: 0.464

CCATATGG (double strand) [8-mer CCATATGG]
binding signal (PBM E-score (-0.5 to 0.5)) [7]: 0.452

ATGACTAA (double strand) [8-mer ATGACTAA]
binding signal (PBM E-score (-0.5 to 0.5)) [5]: 0.465

ATTAGTCA (double strand) [8-mer ATTAGTCA]
binding signal (PBM E-score (-0.5 to 0.5)) [5]: 0.463

ACAATATG (double strand) [8-mer ACAATATG]
binding signal (PBM E-score (-0.5 to 0.5)) [7]: 0.471

TATTTACA (double strand) [8-mer TATTTACA]
binding signal (PBM E-score (-0.5 to 0.5)) [8]: 0.474

GCGCCAAA (double strand) [8-mer GCGCCAAA]
binding signal (PBM E-score (-0.5 to 0.5)) [9]: 0.453

AAAAGGTC (double strand) [8-mer AAAAGGTC]
binding signal (PBM E-score (-0.5 to 0.5)) [10]: 0.456

TTCGTAAA (double strand) [8-mer TTCGTAAA]
binding signal (PBM E-score (-0.5 to 0.5)) [11]: 0.458

ATGTTGCA (double strand) [8-mer ATGTTGCA]
binding signal (PBM E-score (-0.5 to 0.5)) [2]: 0.459 | binding signal (PBM E-score (-0.5 to 0.5)) [12]: 0.497

TACTCCAA (double strand) [8-mer TACTCCAA]
binding signal (PBM E-score (-0.5 to 0.5)) [6]: 0.459

ATTCGTAA (double strand) [8-mer ATTCGTAA]
binding signal (PBM E-score (-0.5 to 0.5)) [11]: 0.489

ATACTCCA (double strand) [8-mer ATACTCCA]
binding signal (PBM E-score (-0.5 to 0.5)) [6]: 0.456

ACTTGTTG (double strand) [8-mer ACTTGTTG]
binding signal (PBM E-score (-0.5 to 0.5)) [4]: 0.465

ACCATATG (double strand) [8-mer ACCATATG]
binding signal (PBM E-score (-0.5 to 0.5)) [7]: 0.478 | binding signal (PBM E-score (-0.5 to 0.5)) [13]: 0.468

AATGTTTC (double strand) [8-mer AATGTTTC]
binding signal (PBM E-score (-0.5 to 0.5)) [1]: 0.497 | binding signal (PBM E-score (-0.5 to 0.5)) [2]: 0.482

CCTGTTGC (double strand) [8-mer CCTGTTGC]
binding signal (PBM E-score (-0.5 to 0.5)) [4]: 0.479

ACCTGTAG (double strand) [8-mer ACCTGTAG]
binding signal (PBM E-score (-0.5 to 0.5)) [4]: 0.452

AAAGGTCA (double strand) [8-mer AAAGGTCA]
binding signal (PBM E-score (-0.5 to 0.5)) [14]: 0.479 | binding signal (PBM E-score (-0.5 to 0.5)) [10]: 0.493 | binding signal (PBM E-score (-0.5 to 0.5)) [15]: 0.491

TAAACAAA (double strand) [8-mer TAAACAAA]
binding signal (PBM E-score (-0.5 to 0.5)) [16]: 0.493 | binding signal (PBM E-score (-0.5 to 0.5)) [8]: 0.473

AGCAACAG (double strand) [8-mer AGCAACAG]
binding signal (PBM E-score (-0.5 to 0.5)) [4]: 0.466

TGTAAACA (double strand) [8-mer TGTAAACA]
binding signal (PBM E-score (-0.5 to 0.5)) [16]: 0.461 | binding signal (PBM E-score (-0.5 to 0.5)) [17]: 0.485 | binding signal (PBM E-score (-0.5 to 0.5)) [8]: 0.476

AATGTTGC (double strand) [8-mer AATGTTGC]
binding signal (PBM E-score (-0.5 to 0.5)) [1]: 0.47 | binding signal (PBM E-score (-0.5 to 0.5)) [2]: 0.465 | binding signal (PBM E-score (-0.5 to 0.5)) [12]: 0.498

AAAGGTTG (double strand) [8-mer AAAGGTTG]
binding signal (PBM E-score (-0.5 to 0.5)) [10]: 0.454

CAATATTG (double strand) [8-mer CAATATTG]
binding signal (PBM E-score (-0.5 to 0.5)) [7]: 0.495

ACCTGTTG (double strand) [8-mer ACCTGTTG]
binding signal (PBM E-score (-0.5 to 0.5)) [4]: 0.493

ATGAGTCA (double strand) [8-mer ATGAGTCA]
binding signal (PBM E-score (-0.5 to 0.5)) [5]: 0.493

GTAAACAA (double strand) [8-mer GTAAACAA]
binding signal (PBM E-score (-0.5 to 0.5)) [16]: 0.486 | binding signal (PBM E-score (-0.5 to 0.5)) [17]: 0.492 | binding signal (PBM E-score (-0.5 to 0.5)) [8]: 0.47

AATTCGTA (double strand) [8-mer AATTCGTA]
binding signal (PBM E-score (-0.5 to 0.5)) [11]: 0.47

CAATATGG (double strand) [8-mer CAATATGG]
binding signal (PBM E-score (-0.5 to 0.5)) [7]: 0.486

ATGACTCA (double strand) [8-mer ATGACTCA]
binding signal (PBM E-score (-0.5 to 0.5)) [5]: 0.498

GAAAGGTC (double strand) [8-mer GAAAGGTC]
binding signal (PBM E-score (-0.5 to 0.5)) [10]: 0.461

TACGAATA (double strand) [8-mer TACGAATA]
binding signal (PBM E-score (-0.5 to 0.5)) [11]: 0.452

GACTCCAA (double strand) [8-mer GACTCCAA]
binding signal (PBM E-score (-0.5 to 0.5)) [6]: 0.459

GTGAGTCA (double strand) [8-mer GTGAGTCA]
binding signal (PBM E-score (-0.5 to 0.5)) [5]: 0.478

ATTACGAA (double strand) [8-mer ATTACGAA]
binding signal (PBM E-score (-0.5 to 0.5)) [11]: 0.485

AATATGGT (double strand) [8-mer AATATGGT]
binding signal (PBM E-score (-0.5 to 0.5)) [7]: 0.452 | binding signal (PBM E-score (-0.5 to 0.5)) [18]: 0.466

AGAAACAT (double strand) [8-mer AGAAACAT]
binding signal (PBM E-score (-0.5 to 0.5)) [1]: 0.492 | binding signal (PBM E-score (-0.5 to 0.5)) [2]: 0.466

AGACTCCA (double strand) [8-mer AGACTCCA]
binding signal (PBM E-score (-0.5 to 0.5)) [6]: 0.457
